Biological target: T1, Polycystin 2 (PC2), human, endogenous in PTEC (human (endogenous in PTEC), UniProt Q13563 1-968)
T1 construct: Polycystin 2 (PC2), encoded by the PKD2 gene, human, endogenous in PTEC; no construct, no residues stated; Endogenous protein, immunoprecipitated with anti-Polycystin-2 antibodies (Santa Cruz)
T1 sequence (looked up): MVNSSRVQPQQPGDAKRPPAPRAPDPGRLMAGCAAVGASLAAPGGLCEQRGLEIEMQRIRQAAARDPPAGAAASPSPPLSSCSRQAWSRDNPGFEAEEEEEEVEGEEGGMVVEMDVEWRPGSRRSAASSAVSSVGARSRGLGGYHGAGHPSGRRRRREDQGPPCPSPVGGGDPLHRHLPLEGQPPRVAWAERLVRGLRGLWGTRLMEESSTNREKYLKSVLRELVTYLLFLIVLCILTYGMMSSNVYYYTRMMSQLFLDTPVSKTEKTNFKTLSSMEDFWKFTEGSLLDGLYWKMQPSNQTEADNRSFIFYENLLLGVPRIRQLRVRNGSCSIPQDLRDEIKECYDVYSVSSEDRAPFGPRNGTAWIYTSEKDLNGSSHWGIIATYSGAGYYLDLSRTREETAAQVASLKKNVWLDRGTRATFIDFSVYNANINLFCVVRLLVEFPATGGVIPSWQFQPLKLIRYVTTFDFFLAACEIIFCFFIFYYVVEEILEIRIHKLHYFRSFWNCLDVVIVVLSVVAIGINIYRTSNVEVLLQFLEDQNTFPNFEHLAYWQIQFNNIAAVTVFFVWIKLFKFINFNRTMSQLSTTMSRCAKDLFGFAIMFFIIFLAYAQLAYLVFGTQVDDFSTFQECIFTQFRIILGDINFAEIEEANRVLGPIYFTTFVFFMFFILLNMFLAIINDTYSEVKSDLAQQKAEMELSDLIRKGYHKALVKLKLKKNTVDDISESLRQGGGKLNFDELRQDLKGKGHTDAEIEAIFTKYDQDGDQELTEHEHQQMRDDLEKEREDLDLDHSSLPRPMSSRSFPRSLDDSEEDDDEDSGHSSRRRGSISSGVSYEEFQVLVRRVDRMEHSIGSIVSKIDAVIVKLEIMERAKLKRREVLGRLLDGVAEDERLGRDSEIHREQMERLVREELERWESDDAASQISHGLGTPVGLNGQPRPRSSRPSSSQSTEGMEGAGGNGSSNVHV
Assay: co-IP; PTEC wt and PC1KD (PKD1 knocked down) lysates (1% Triton X-100, 150 mM NaCl, 25 mM Hepes pH 7.4); anti-PC2 antibodies coupled to protein A-Sepharose, overnight; immunoblot with anti-CaSR and anti-PC2
Conditions: partners not purified

amount of CaSR immunoprecipitated with PC2 in PC1KD cells relative to wt (ratio CaSR/PC2): 1.34 fold (wt = 1)
B1: Calcium Sensing Receptor (CaSR), human, endogenous in PTEC (receptor, human (endogenous in PTEC), UniProt P41180 20-1078, looked up)
chain: YGPDQRAQKKGDIILGGLFPIHFGVAAKDQDLKSRPESVECIRYNFRGFRWLQAMIFAIEEINSSPALLPNLTLGYRIFDTCNTVSKALEATLSFVAQNKIDSLNLDEFCNCSEHIPSTIAVVGATGSGVSTAVANLLGLFYIPQVSYASSSRLLSNKNQFKSFLRTIPNDEHQATAMADIIEYFRWNWVGTIAADDDYGRPGIEKFREEAEERDICIDFSELISQYSDEEEIQHVVEVIQNSTAKVIVVFSSGPDLEPLIKEIVRRNITGKIWLASEAWASSSLIAMPQYFHVVGGTIGFALKAGQIPGFREFLKKVHPRKSVHNGFAKEFWEETFNCHLQEGAKGPLPVDTFLRGHEESGDRFSNSSTAFRPLCTGDENISSVETPYIDYTHLRISYNVYLAVYSIAHALQDIYTCLPGRGLFTNGSCADIKKVEAWQVLKHLRHLNFTNNMGEQVTFDECGDLVGNYSIINWHLSPEDGSIVFKEVGYYNVYAKKGERLFINEEKILWSGFSREVPFSNCSRDCLAGTRKGIIEGEPTCCFECVECPDGEYSDETDASACNKCPDDFWSNENHTSCIAKEIEFLSWTEPFGIALTLFAVLGIFLTAFVLGVFIKFRNTPIVKATNRELSYLLLFSLLCCFSSSLFFIGEPQDWTCRLRQPAFGISFVLCISCILVKTNRVLLVFEAKIPTSFHRKWWGLNLQFLLVFLCTFMQIVICVIWLYTAPPSSYRNQELEDEIIFITCHEGSLMALGFLIGYTCLLAAICFFFAFKSRKLPENFNEAKFITFSMLIFFIVWISFIPAYASTYGKFVSAVEVIAILAASFGLLACIFFNKIYIILFKPSRNTIEEVRCSTAAHAFKVAARATLRRSNVSRKRSSSLGGSTGSTPSSSISSKSNSEDPFPQPERQKQQQPLALTQQEQQQQPLTLPQQQRSQQQPRCKQKVIFGSGTVTFSLSFDEPQKNAMAHRNSTHQNSLEAQKSSDTLTRHEPLLPLQCGETDLDLTVQETGLQGPVGGDQRPEVEDPEELSPALVVSSSQSFVISGGGSTVTENVVNS
notes: Calcium sensing receptor (CaSR), human, endogenous in PTEC; no construct, no residues stated; Endogenous protein, detected with a monoclonal anti-CaSR antibody (Sigma C0493); also called extracellular calcium sensing receptor
